Experimental data taken from patent US12427212B2, “Nectin-4 binding miniproteins, conjugates and uses thereof” (Aktis Oncology, Inc., priority 2023, dated 2025).
Read-outs that look alike come from different tables or passages of the source. Bridges are numbered along the chain shown (N, C = ends). The star is where a group is joined. DOTA = O=C(O)CN1CCN(CC(=O)O)CCN(CC(=O)*)CCN(CC(=O)O)CC1; PEG4 = NCCOCCOCCOCCOCCC(=O)O

Experiments:
[1] = test system: HT-1376-cells ("Parental", which express Nectin-4); assay: In vivo efficacy in cell-line derived xenograft (CDX) model, HT-1376 parental; parameters: species or system mouse; conditions: 3 mg/kg IV QWx3; versus vehicle
Experimental: In vivo efficacy study experiments were performed in tumor bearing athymic nude mice. […] Tumors were monitored for a minimum of 14 days prior to group stratification and study initiation dates.
Dose measurements for a sample injected dose were measured and confirmed on a gamma counter and corrected for decay. EV doses were calculated based on mouse weights and liquid concentration of prepared material. Indicated doses of vehicle, EV or radiolabeled C251 were prepared corresponding to the indicated administered dose levels per group. Doses were administered via tail vein injection while restrained and awake.
Animal monitoring: Tumor volume (caliper measurement) and body weight measurements for enrolled mice were performed twice a week for an initial planned monitoring period of 8 weeks. More frequent gross observations of mice were performed.
Hunan endpoints: Mice remained on study until they reached the end of the 8-week monitoring period or a number of pre-defined humane endpoints, including: • 1. An increase in tumor volume size that exceeds >1500 mm^3, or 20 mm in one dimension, or tumor becomes ulcerated or necrotic. • 2. A decrease in body weight ≥20% from maximum recorded weight. • 3. Any signs of pain or distress (i.e., consistent hunched posture, rough coat, squinted eyes, slowed gait). • 4. Tumors that compromise mobility or ability to eat or drink. • 5. BCS score ≤2. […]

Nectin-4 = target: T1, Nectin-4 (Homo sapiens, UniProt Q96NY8); conditions: cited from earlier work
T1 sequence (Q96NY8 32-510): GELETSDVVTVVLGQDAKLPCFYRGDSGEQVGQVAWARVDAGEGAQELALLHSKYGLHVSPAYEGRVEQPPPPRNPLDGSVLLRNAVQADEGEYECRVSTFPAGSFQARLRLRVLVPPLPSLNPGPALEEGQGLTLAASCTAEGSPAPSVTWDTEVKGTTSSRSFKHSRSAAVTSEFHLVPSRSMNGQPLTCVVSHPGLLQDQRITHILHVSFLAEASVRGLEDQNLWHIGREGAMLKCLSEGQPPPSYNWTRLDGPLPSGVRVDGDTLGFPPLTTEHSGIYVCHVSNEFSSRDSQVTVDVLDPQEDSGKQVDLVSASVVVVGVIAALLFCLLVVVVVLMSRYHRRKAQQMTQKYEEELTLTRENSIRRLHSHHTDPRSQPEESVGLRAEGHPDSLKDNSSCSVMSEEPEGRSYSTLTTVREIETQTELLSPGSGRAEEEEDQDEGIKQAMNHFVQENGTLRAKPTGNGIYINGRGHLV

[2] = previously published; cited from earlier work
[3] = test system: HT-1376 urothelial cancer cells; assay: Radioligand binding of lutetium-177 radioconjugates, saturation and kinetic analysis; parameters: species or system human; conditions: lutetium-177 radioconjugates of PEG4-DOTA compounds, HT-1376 cells, global fit of association and dissociation
Experimental: Radioligand binding was performed in HT-1376 urothelial cancer cells by method of saturation. Cells were seeded at 20,000 cells per well in 96-well format 48 h prior to assay. Lutetium-177-labeled radioconjugates of C215 and C117 were incubated with cells at 4° C. for 1 h at various increasing concentrations of radioligand. At the end of incubation, cells were washed three times with PBS and radioactivity was quantified by gamma counting as shown in FIGS. 4A-5B.
Radioligand binding was performed in HT-1376 urothelial cancer cells by method of kinetic analysis. Cells were seeded at 20,000 cells per well in 96-well format 48 h prior to assay. On the day of assay, culture medium was removed and PBS was added to cells. Association kinetics were measured at three concentrations of radioligand, and this was performed by the addition of lutetium-177 radioconjugates to cells at various time points from 1 to 60 minutes.

HT-1376 tumor xenograft = assay: In vivo biodistribution of 111In-labeled miniproteins by SPECT/CT, HT-1376 xenograft; parameters: species or system mouse; conditions: 111In-labeled, tumor, +4 h, HT-1376 xenograft mice
Outline: (§1)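 Uptake in % ID/g from maximum intensity projections of SPECT/CT scans, with SPECT in activity units and CT windowed −500 to 4500 HU. Animals carried HT-1376 tumors, a human Nectin-4-expressing line, and were dosed with 111In-labeled miniproteins.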

[4] = as above; parameters: species or system mouse; conditions: female, athymic nude, mouse, in vivo
Outline: as §1

[5] = test system: HT-1376 urothelial cancer cells; assay: In vitro cell cytotoxicity assay of 225Ac-radioconjugates (CellTiter-Glo); assay type: cell-based, human; conditions: compound radiolabeled with 225Ac, 24 h treatment, 4-5 day regrowth, HT-1376 cells
Experimental: Cytotoxicity to ^225Ac-radioconjugates was assessed in HT-1376 urothelial cancer cells. Cells were seeded in 96-well plates at densities of 250 to 1000 cells per well two days prior to treatment. On the day of treatment ^225Ac-radioconjugates were diluted in culture medium to concentrations ranging from 0,0001 to 100 μCi/mL and treatment solutions were incubated with cells for 24 h. At the end of the treatment period, the treatment solution was removed, and fresh culture medium was replenished for the regrowth period of the assay that lasted 4-5 day's. At the end of the regrowth period the culture medium was removed and viability was assessed by CellTiter-Glo (Promega, Waltham MA) luminescent assay and the plates were read on a Perkin Elmer Enspire multimode plate reader. Data were normalized to treatment controls and plotted as non-linear sigmoidal dose response curves to determine the effective concentration for 50% reduction in cell viability.

[6] = PhII trial, locally advanced or metastatic bladder cancer, 10.2 months median follow up

Substance: enfortumab vedotin [EV]
- Tumor volume [1]: Some reduction in tumor volume
- overall tumor objective response rate (ORR) (Nectin-4; PhI study, patients previously treated with ICI therapy): 42%
- ORR (Nectin-4; PhI study, patients with particularly high tumor burden (liver metastases)): 36%
- ORR (Nectin-4; [6]): 44%
- complete response rate (CRR) (Nectin-4; [6]): 12%

Substance: enfortumab vedotin
- Plasma terminal half-life (min) [2]: 2,476.8 (1.72 days) min

Substance: {DOTA-PEG4}-CEYDEEFFTALKRLRGGDICYYIQAKFQYLPKLCIEEILDNLGCS-OH (disulfide 1-34, 20-44 (inferred)) [Compound C117]
- Kd [3]: 2.64 nM
- Data of Biodistribution (+4 h Tumor~% ID/g) (HT-1376 tumor xenograft): 2.29 % ID/g
- tissue uptake at 4 h [4]: 150 %ID/g
- tissue uptake at 24 h [4]: 93.3 %ID/g
- EC50 (microcurie/milliliter) for 225Ac radioconjugates [5]: 0.014 microcurie/milliliter
